According to the supplement of paper PMC11246515:
± gives the standard deviation of the averaged measurements.

Assay: total protein half-life in vivo (active degradation + dilution); higher = more stable protein
[1] = E. coli NCM3722 delta-clpP delta-lon delta-hslV, growth: N-lim chemostat, doubling time 6 h
[2] = E. coli NCM3722 delta-clpP, growth: N-lim chemostat, doubling time 6 h
[3] = E. coli NCM3722 delta-hslV, growth: N-lim chemostat, doubling time 6 h
[4] = E. coli NCM3722 delta-lon, growth: N-lim chemostat, doubling time 6 h
[5] = E. coli NCM3722 delta-smpB, growth: N-lim chemostat, doubling time 6 h
[6] = wild type E. coli NCM3722, growth: C-lim chemostat, doubling time 3 h
[7] = wild type E. coli NCM3722, growth: C-lim chemostat, doubling time 6 h
[8] = wild type E. coli NCM3722, growth: C-lim chemostat, doubling time 12 h
[9] = wild type E. coli NCM3722, growth: N-lim chemostat, doubling time 6 h
[10] = wild type E. coli NCM3722, growth: N-lim chemostat, doubling time 12 h
[11] = wild type E. coli NCM3722, growth: P-lim chemostat, doubling time 6 h
[12] = wild type E. coli NCM3722, growth: P-lim chemostat, doubling time 12 h

MINYGVVGVGYFGAELARFMNMHDNAKITCVYDPENGENIARELQCINMSSLDALVSSKLVDCVIVATPNYLHKEPVIKAAKNKKHVFCEKPIALSYEDCVDMVKACKEAGVTFMAGHIMNFFNGVQYARKLIKEGVIGEILSCHTKRNGWENKQERLSWKKMKEQSGGHLYHHIHELDCVQHLLGEIPETVTMIGGNLAHSGPGFGNEDDMLFMTLEFPSGKLATLEWGSAFNWPEHYVIINGTKGSIKIDMQETAGSLRIGGQTKHFLVHETQEEDDDRRKGNMTSEMDGAIAYGHPGKKTPLWLASLIRKETLFLHNILCGAKPEEDYIDLLNGEAAMSAIATADAATLSRSQDRKVKISEIIKHTSVM
total protein half-life in vivo [1]: 5.16 h
total protein half-life in vivo [2]: 4.32 h
total protein half-life in vivo [3]: 4.31 ± 0.18 h
total protein half-life in vivo [4]: 4.79 ± 0.4 h
total protein half-life in vivo [5]: 4.29 ± 0.068 h
total protein half-life in vivo [6]: 2.75 ± 0.66 h
total protein half-life in vivo [7]: 6.07 ± 0.59 h
total protein half-life in vivo [8]: 11.2 ± 1.7 h
total protein half-life in vivo [9]: 4.39 ± 0.38 h
total protein half-life in vivo [10]: 7.48 ± 0.85 h
total protein half-life in vivo [11]: 6.27 ± 0.24 h
total protein half-life in vivo [12]: 13.4 ± 1.4 h

MSGKPAARQGDMTQYGGSIVQGSAGVRIGAPTGVACSVCPGGVTSGHPVNPLLGAKVLPGETDIALPGPLPFILSRTYSSYRTKTPAPVGSLGPGWKMPADIRLQLRDNTLILSDNGGRSLYFEHLFPGEDGYSRSESLWLVRGGVAKLDEGHRLAALWQALPEELRLSPHRYLATNSPQGPWWLLGWCERVPEADEVLPAPLPPYRVLTGLVDRFGRTQTFHREAAGEFSGEITGVTDGAWRHFRLVLTTQAQRAEEARQQAISGGTEPSAFPDTLPGYTEYGRDNGIRLSAVWLTHDPEYPENLPAAPLVRYGWTPRGELAVVYDRSGKQVRSFTYDDKYRGRMVAHRHTGRPEIRYRYDSDGRVTEQLNPAGLSYTYQYEKDRITITDSLDRREVLHTQGEAGLKRVVKKEHADGSVTQSQFDAVGRLRAQTDAAGRTTEYSPDVVTGLITRITTPDGRASAFYYNHHNQLTSATGPDGLELRREYDELGRLIQETAPDGDITRYRYDNPHSDLPCATEDATGSRKTMTWSRYGQLLSFTDCSGYVTRYDHDRFGQMTAVHREEGLSQYRAYDSRGQLIAVKDTQGHETRYEYNIAGDLTAVIAPDGSRNGTQYDAWGKAVRTTQGGLTRSMEYDAAGRVIRLTSENGSHTTFRYDVLDRLIQETGFDGRTQRYHHDLTGKLIRSEDEGLVTHWHYDEADRLTHRTVKGETAERWQYDERGWLTDISHISEGHRVAVHYRYDEKGRLTGERQTVHHPQTEALLWQHETRHAYNAQGLANRCIPDSLPAVEWLTYGSGYLAGMKLGDTPLVEYTRDRLHRETLRSFGRYELTTAYTPAGQLQSQHLNSLLSDRDYTWNDNGELIRISSPRQTRSYSYSTTGRLTGVHTTAANLDIRIPYATDPAGNRLPDPELHPDSTLSMWPDNRIARDAHYLYRYDRHGRLTEKTDLIPEGVIRTDDERTHRYHYDSQHRLVHYTRTQYEEPLVESRYLYDPLGRRVAKRVWRRERDLTGWMSLSRKPQVTWYGWDGDRLTTIQNDRSRIQTIYQPGSFTPLIRVETATGELAKTQRRSLADALQQSGGEDGGSVVFPPVLVQMLDRLESEILADRVSEESRRWLASCGLTVEQMQNQMDPVYTPARKIHLYHCDHRGLPLALISTEGATAWCAEYDEWGNLLNEENPHQLQQLIRLPGQQYDEESGLYYNRHRYYDPLQGRYITQDPIGLKGGWNLYGYQLNPISDIDPLGLSMWEDAKSGACTNGLCGTLSAMIGPDKFDSIDSTAYDALNKINSQSICEDKEFAGLICKDNSGRYFSTAPNRGERKGSYPFNSPCPNGTEKVSAYHTHGADSHGEYWDEIFSGKDEKIVKSKDNNIKSFYLGTPSGNFKAIDNHGKEITNRKGLPNVCRVHGNM
total protein half-life in vivo [2]: 5.71 h
total protein half-life in vivo [3]: 6.16 ± 0.29 h
total protein half-life in vivo [7]: 5.99 ± 0.77 h
total protein half-life in vivo [8]: 15.1 h
total protein half-life in vivo [9]: 5.88 h
total protein half-life in vivo [10]: 12.5 ± 0.6 h
total protein half-life in vivo [11]: 4.38 h
total protein half-life in vivo [12]: 13.7 h

MRFYRPLGRISALTFDLDDTLYDNRPVILRTEREALTFVQNYHPALRSFQNEDLQRLRQAVREAEPEIYHDVTRWRFRSIEQAMLDAGLSAEEASAGAHAAMINFAKWRSRIDVPQQTHDTLKQLAKKWPLVAITNGNAQPELFGLGDYFEFVLRAGPHGRSKPFSDMYFLAAEKLNVPIGEILHVGDDLTTDVGGAIRSGMQACWIRPENGDLMQTWDSRLLPHLEISRLASLTSLI [P0ADP0]
total protein half-life in vivo [1]: 5.24 ± 0.7 h
total protein half-life in vivo [2]: 4.56 ± 0.69 h
total protein half-life in vivo [3]: 3.79 ± 0.05 h
total protein half-life in vivo [4]: 4.87 ± 0.35 h
total protein half-life in vivo [5]: 3.76 ± 0.16 h
total protein half-life in vivo [7]: 5.75 ± 0.33 h
total protein half-life in vivo [8]: 10.1 ± 1.4 h
total protein half-life in vivo [9]: 3.83 ± 0.34 h
total protein half-life in vivo [10]: 6.7 h
total protein half-life in vivo [11]: 5.87 ± 0.57 h
total protein half-life in vivo [12]: 11.6 ± 0.078 h

MSSLSQAASSVEKRTNARYWIVVMLFIVTSFNYGDRATLSIAGSEMAKDIGLDPVGMGYVFSAFSWAYVIGQIPGGWLLDRFGSKRVYFWSIFIWSMFTLLQGFVDIFSGFGIIVALFTLRFLVGLAEAPSFPGNSRIVAAWFPAQERGTAVSIFNSAQYFATVIFAPIMGWLTHEVGWSHVFFFMGGLGIVISFIWLKVIHEPNQHPGVNKKELEYIAAGGALINMDQQNTKVKVPFSVKWGQIKQLLGSRMMIGVYIGQYCINALTYFFITWFPVYLVQARGMSILKAGFVASVPAVCGFIGGVLGGIISDWLMRRTGSLNIARKTPIVMGMLLSMVMVFCNYVNVEWMIIGFMALAFFGKGIGALGWAVMADTAPKEISGLSGGLFNMFGNISGIVTPIAIGYIVGTTGSFNGALIYVGVHALIAVLSYLVLVGDIKRIELKPVAGQ
total protein half-life in vivo [7]: 5.06 h

MSVLQVLHIPDERLRKVAKPVEEVNAEIQRIVDDMFETMYAEEGIGLAATQVDIHQRIIVIDVSENRDERLVLINPELLEKSGETGIEEGCLSIPEQRALVPRAEKVKIRALDRDGKPFELEADGLLAICIQHEMDHLVGKLFMDYLSPLKQQRIRQKVEKLDRLKARA [P0A6K3]
total protein half-life in vivo [1]: 5.89 ± 0.28 h
total protein half-life in vivo [2]: 4.94 ± 1.4 h
total protein half-life in vivo [3]: 3.19 ± 0.11 h
total protein half-life in vivo [4]: 3.686 ± 0.032 h
total protein half-life in vivo [5]: 2.84 ± 0.43 h
total protein half-life in vivo [6]: 2.6 ± 0.4 h
total protein half-life in vivo [7]: 3.936 ± 0.014 h
total protein half-life in vivo [8]: 6.33 ± 0.35 h
total protein half-life in vivo [9]: 3.12 ± 0.3 h
total protein half-life in vivo [10]: 4.58 ± 0.57 h
total protein half-life in vivo [11]: 4.29 h
total protein half-life in vivo [12]: 8.94 ± 0.6 h
